Reference: doi:10.1101/2021.10.11.463801

B1: JIP4[1-103] (domain or fragment)
chain: MELEDGVVYQEEPGGSGAVMSERVSGLAGSIYREFERLIGRYDEEVVKELMPLVVAVLENLDSVFAQDQEHQVELELLRDDNEQLITQYEREKALRKHAEEKF
B2: JIP3[1-108] (domain or fragment)
chain: MMEIQMDEGGGVVVYQDDYCSGSVMSERVSGLAGSIYREFERLIHCYDEEVVKELMPLVVNVLENLDSVLSENQEHEVELELLREDNEQLLTQYEREKALRRQAEEKF

Target: DLIC1[388-523] (human)
Experiment: ITC

Row | Kd | stoichiometry N (DLIC1-C molecules per RH1 dimer) | Binder
1 | 4000 nM | 2 | B1
2 | 1000 nM | 2 | B2
